Test results taken from US20260201038A1 (CELLABMED, published 2026).

How the values were obtained:
[1] = molecular target: B7-H3 on human cancer cells (human) (UniProt Q5ZPR3); experiment: flow cytometry on U87 brain tumor cells; control (secondary antibody only) < 10%
[2] = molecular target: B7-H3 on human cancer cells (human) (UniProt Q5ZPR3); experiment: flow cytometry on A549 lung cancer cells; control (secondary antibody only) < 5%
[3] = molecular target: B7-H3 on human cancer cells (human) (UniProt Q5ZPR3); experiment: cell-based or functional assay
[4] = molecular target: T1, PQRSPTGAVEVQVPE; experiment: peptide microarray, 15-mers of human 4Ig B7-H3; panel Ig-like-V type 2
T1 construct: 15-mer of human 4Ig B7-H3 on the peptide microarray, panel Ig-like-V type 2
T1 peptide: PQRSPTGAVEVQVPE
Experimental: (§1) It was confirmed that G2D IgG has linear epitopes since G2D was verified to recognize 4lg B7-H3 through western blot (FIG. 10a). Therefore, linear epitope mapping was conducted by Pepperprint GmbH (Germany). After preparing a peptide microarray from the 15 4lg B7-H3 amino acids with 14-amino acid overlaps, the antibodies binding to peptides were identified using secondary antibodies (FIG. 10b). As a result, it was confirmed that G2D IgG binds to a peptide having a sequence of EVQVP (FIG. 10c). EVQVP is located in the Ig-like V-type1 and Ig-like V-type2 domains of 4lg B7-H3 (FIGS. 10d and 10e). When the epitopes of the control antibody enoblituzumab were identified by the same method, it was confirmed that the epitopes include the sequence of GYPEAE (FIG. 10b), and GYPEAE is located in the Ig-like C2-type1 and Ig-like C2-type2 domains of 4lg B7-H3 (FIGS. 10d and 10e). As a result, it was confirmed that G2D IgG and the control antibody enoblituzumab have different epitopes.

[5] = molecular target: T2, QRSPTGAVEVQVPED; experiment: as above
T2 construct: 15-mer of human 4Ig B7-H3 on the peptide microarray, panel Ig-like-V type 2
T2 peptide: QRSPTGAVEVQVPED
Experimental: as §1

[6] = molecular target: T3, SPTGAVEVQVPEDPV; experiment: as above
T3 construct: 15-mer of human 4Ig B7-H3 on the peptide microarray, panel Ig-like-V type 2
T3 peptide: SPTGAVEVQVPEDPV
Experimental: as §1

[7] = molecular target: T4, GAVEVQVPEDPVVAL; experiment: as above
T4 construct: 15-mer of human 4Ig B7-H3 on the peptide microarray, panel Ig-like-V type 2
T4 peptide: GAVEVQVPEDPVVAL
Experimental: as §1

[8] = molecular target: T5, TGAVEVQVPEDPVVA; experiment: as above
T5 construct: 15-mer of human 4Ig B7-H3 on the peptide microarray, panel Ig-like-V type 2
T5 peptide: TGAVEVQVPEDPVVA
Experimental: as §1

[9] = molecular target: T6, PTGAVEVQVPEDPVV; experiment: as above
T6 construct: 15-mer of human 4Ig B7-H3 on the peptide microarray, panel Ig-like-V type 2
T6 peptide: PTGAVEVQVPEDPVV
Experimental: as §1

[10] = molecular target: T7, VEVQVPEDPVVALVG; experiment: as above
T7 construct: 15-mer of human 4Ig B7-H3 on the peptide microarray, panel Ig-like-V type 2
T7 peptide: VEVQVPEDPVVALVG
Experimental: as §1

[11] = molecular target: T8, TPQRSPTGAVEVQVP; experiment: as above
T8 construct: 15-mer of human 4Ig B7-H3 on the peptide microarray, panel Ig-like-V type 2
T8 peptide: TPQRSPTGAVEVQVP
Experimental: as §1

[12] = molecular target: B7-H3 on human cancer cells (human) (UniProt Q5ZPR3); experiment: flow cytometry on HCT116 colorectal cancer cells; control (secondary antibody only) < 25%
[13] = molecular target: T9, B7-1 (UniProt P33681 35-242); experiment: indirect ELISA, B7-1 coated at 1 ug/mL, absorbance at 450 nm
T9 sequence (looked up): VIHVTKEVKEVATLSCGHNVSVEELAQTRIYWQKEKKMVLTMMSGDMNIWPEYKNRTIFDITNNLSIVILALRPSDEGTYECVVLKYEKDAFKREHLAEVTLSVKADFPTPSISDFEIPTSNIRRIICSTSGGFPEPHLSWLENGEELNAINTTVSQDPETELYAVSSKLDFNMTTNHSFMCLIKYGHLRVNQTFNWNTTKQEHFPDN
Experimental: [The procedure below names another target; the source lists this target under the same test.] (§2) The binding ability of 2D IgG prepared in Example 2 for recombinant B7-H3 protein was investigated by indirect ELISA. For indirect ELISA, recombinant human 4lg B7-H3, recombinant human 2lg B7-H3 and recombinant mouse B7-H3 were diluted respectively to 1 μg/mL in 50 μL of PBS and adsorbed overnight onto a 96-well immunoplate (Corning, USA) by storing at 4° C. After reaction with a buffer solution containing 3% bovine serum albumin at room temperature for 1 hour, followed by washing 3 times with a buffer solution containing 0.5% Tween 20, each well was treated with 50 μL of the antibodies diluted serially (0.0001, 0.0003, 0.001, 0.003, 0.01, 0.03, 0.1, 0.3, 1, 3 and 10 nM). For antigen-antibody binding, the mixture was reacted at room temperature for 2 hours, and then washed 3 times with a buffer solution containing 0.5% Tween 20. After treating each well with 50 μL of anti-human immunoglobulin Fc-HRP antibodies (Jackson Immunoresearch, USA) diluted to 1:3,000, reaction was conducted at room temperature for 1 hour. […] As a result of measuring absorbance at 450 nm using a spectrophotometer (Biotek, USA), it was confirmed that 2D IgG binds to B7-H3, and the binding ability was in the order of 4lg B7-H3, 2lg B7-H3 and mouse B7-H3 (FIG. 2a). […]

[14] = molecular target: T10, B7-2 (UniProt P42081 24-247, limits assumed); experiment: indirect ELISA, B7-2 coated at 1 ug/mL, absorbance at 450 nm
T10 sequence (looked up): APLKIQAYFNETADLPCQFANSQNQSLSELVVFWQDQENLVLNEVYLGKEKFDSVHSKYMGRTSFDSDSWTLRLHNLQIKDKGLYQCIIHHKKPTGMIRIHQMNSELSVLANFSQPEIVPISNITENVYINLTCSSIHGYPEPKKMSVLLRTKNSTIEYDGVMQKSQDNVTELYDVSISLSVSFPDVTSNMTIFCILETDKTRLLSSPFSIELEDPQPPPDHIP
Experimental: [The procedure below names another target; the source lists this target under the same test.] as §2

B1: G2D IgG (antibody, V domains shown)
VH: QVQLVESGGGLVQPGGSLRLSCSASGFDFSSYPMVWVRQAPGKGLEYVSSINSGGSWTGYGAAVKGRATISRDNSKNTLYLQMNSLRAEDTATYYCARAYGAATIDAWGQGTTVTVSS
VL: SYELTQPPSVSVSPGQTARITCSGGSIGYGWYQQKAPGQAPVTVIYYNDRRPSGIPERFSGSKSGTTNTLTISGVQAEDEADYYCGSADSSSTYTGIFGGGTKLTVL
notes: The back-substitutions (L46T, S66K, V71N in VL); also called humanized 2D; G2D antibody
- % of cells in the positive gate [1]: > 95%
- % of cells in the positive gate [2]: > 95%
- T cell-mediated A549 cell-killing effect (GFP fluorescence of A549 cells after 48 h co-culture with activated PBMCs; negative control group = 100) [3]: 69.3
- T cell-mediated cancer cell-killing effect as compared to the negative control group [3]: 30%
- fluorescence intensity of the peptide spot [4]: 92.3
- fluorescence intensity of the peptide spot [5]: 80
- fluorescence intensity of the peptide spot [6]: 94.8
- fluorescence intensity of the peptide spot [7]: 95
- fluorescence intensity of the peptide spot [8]: 84.5
- fluorescence intensity of the peptide spot [9]: 142
- fluorescence intensity of the peptide spot [10]: 92.5
- fluorescence intensity of the peptide spot [11]: 89.3
- % of cells in the positive gate [12]: > 95%
- binding result [13]: no binding (tested: 10 nM)
- binding result [14]: no binding (tested: 10 nM)
